From patent US20240360203A1
Substitutions are numbered along the chain they refer to. Read-outs that look alike come from different tables or passages of the source.

B1: AB-1 Fab (Fab, V domains shown)
VH: EVQLVESGAEVKKPGESLKISCKGSGYTFTRYWIGWVRQMPGKGLEWMGIIYPGDSDVRYSPSFQGHVTISADKSISTAYLQWNSLKASDTAMYYCARLPQYCSKGVCYRWFDPWGQGTLVTVSS
VL: EIVLTQSPSSVSASVGDRVTITCRASQGISSWLAWYQQKPGKAPKLLIYAASSLQSGVPSRFSGSGSGTDFTLTISSLQPEDFATYYCQQGHSFPYTFGQGTNLEIK
B2: Reference Antibody Fab (Fab, V domains shown)
VH: B1 VH with V58T, K105N, Y109Q
VL: B1 VL with H92N
B3: Reference Antibody (antibody, V domains shown)
VH: B1 VH with V58T, K105N, Y109Q
VL: B1 VL with H92N
B4: AB-1 (antibody, V domains shown)
VH: B1 VH
VL: B1 VL

How the values were obtained:
[1] = biological target: T1, SARS-CoV-2 spike S2 peptide 1149-1167, biotinylated (SARS-CoV-2); assay: SPR, Fab over captured biotin-peptide, 25 C
[2] = biological target: T2, SARS-CoV-2 spike S2 peptide 1143-1162, biotinylated (SARS-CoV-2); assay: SPR, Fab over captured biotin-peptide, 25 C
[3] = biological target: T1, SARS-CoV-2 spike S2 peptide 1149-1167, …; assay: SPR, Fab over captured biotin-peptide, 25 C; remark: listed apart in the source
[4] = biological target: T1, SARS-CoV-2 spike S2 peptide 1149-1167, …; assay: DELFIA on captured biotin-peptide; parameters: unit not given beside the values
[5] = biological target: HIV-1 Env peptide, biotinylated (negative control) (HIV-1); assay: DELFIA on captured biotin-peptide; parameters: unit not given beside the values
[6] = biological target: T2, SARS-CoV-2 spike S2 peptide 1143-1162, …; assay: DELFIA on captured biotin-peptide; parameters: unit not given beside the values

Row | Binder | Kd [1] [nM] | koff [1] [s⁻¹] | kon [1] [M⁻¹ s⁻¹] | Kd [2] [nM] | koff [2] [s⁻¹] | kon [2] [M⁻¹ s⁻¹] | Kd [3] [nM] | AUC [4] | AUC [5] | AUC [6]
1 | B1 | 0.9 | 0.00241 | 2.61e+06 | 12.3 | 0.037 | 3e+06 | 0.925 | – | – | –
2 | B2 | 5.4 | 0.00498 | 929000 | – | – | – | 5.36 | – | – | –
3 | B3 | – | – | – | – | – | – | – | 3.05e+06 | 16100 | –
4 | B4 | – | – | – | – | – | – | – | 3.27e+06 | 9860 | 3.52e+06
